The target in the experiment is recombinant human TGFβ1 (rhTGFβ) (human) (UniProt P01137). The experiment is described as follows: cell-based or functional assay.
Sequence of UniProt P01137 (P01137 279-390 limits assumed): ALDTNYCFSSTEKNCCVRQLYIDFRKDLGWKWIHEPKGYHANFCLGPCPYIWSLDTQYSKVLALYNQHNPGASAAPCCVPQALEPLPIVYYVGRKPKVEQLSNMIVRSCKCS

Take “TGFβ-switch receptor (SwR): extracellular domains of TGFβRI and TGFβRII fused to the transmembrane and intracellular domains of the IL-2/IL-15 receptor β and γ chains”: the expansion of JK59 SwR-STEAP1 CAR T cells cultured 21 days with rhTGFβ stood at 15 fold; the expansion of JK69 SwR-STEAP1 CAR T cells cultured 21 days with rhTGFβ stood at 33 fold; the phosphorylation level of STAT5 (pY694) in CD3+ JK59 CAR T cells treated with rhTGFβ at 10 ng/ml for 15 min, flow cytometry was determined as 60%.

The values above are taken from US20260224624A1.
